Measured values as given in US20220017622A1 (Pfizer, published 2022).

What was measured:
[1] = biological target: T1, human B7-H4 extracellular domain (human, UniProt Q7Z7D3 29-258); assay: SPR 25 C; bispecific on anti-hFc chip, ECD analyte
T1 construct: Soluble ECD used as SPR analyte; also called huB7-H4 ECD; huB7-H4
T1 sequence: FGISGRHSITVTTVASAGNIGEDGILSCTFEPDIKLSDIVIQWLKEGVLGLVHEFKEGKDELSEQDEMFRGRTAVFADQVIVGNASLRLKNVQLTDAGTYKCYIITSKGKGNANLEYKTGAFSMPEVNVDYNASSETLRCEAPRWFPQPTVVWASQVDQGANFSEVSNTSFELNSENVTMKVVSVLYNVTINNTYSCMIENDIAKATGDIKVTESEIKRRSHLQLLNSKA

[2] = biological target: T2, cyno B7-H4 extracellular domain (cyno, UniProt Q7Z7D3 29-258 (human entry)); assay: SPR 25 C; bispecific on anti-hFc chip, ECD analyte
T2 construct: Soluble ECD used as SPR analyte; also called cyB7-H4 ECD; cyB7-H4
T2 sequence: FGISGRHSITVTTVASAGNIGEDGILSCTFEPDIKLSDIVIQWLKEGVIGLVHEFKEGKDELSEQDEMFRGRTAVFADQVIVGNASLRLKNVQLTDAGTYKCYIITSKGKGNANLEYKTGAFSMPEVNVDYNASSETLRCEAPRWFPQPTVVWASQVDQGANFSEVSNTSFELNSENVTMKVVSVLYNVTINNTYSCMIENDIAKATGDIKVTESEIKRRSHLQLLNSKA

[3] = biological target: T3, mouse B7-H4 extracellular domain (mouse, UniProt Q7TSP5 29-258); assay: SPR 25 C; bispecific on anti-hFc chip, ECD analyte
T3 construct: Soluble ECD used as SPR analyte; also called muB7-H4 ECD; muB7-H4
T3 sequence: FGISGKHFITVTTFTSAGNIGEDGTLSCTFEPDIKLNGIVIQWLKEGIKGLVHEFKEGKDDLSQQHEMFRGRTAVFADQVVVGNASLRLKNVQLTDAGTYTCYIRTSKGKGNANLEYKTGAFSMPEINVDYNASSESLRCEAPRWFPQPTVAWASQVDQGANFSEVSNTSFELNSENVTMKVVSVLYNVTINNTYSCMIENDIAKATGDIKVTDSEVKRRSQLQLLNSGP

[4] = biological target: T4, human CD3 (delta/epsilon heterodimer) (human, UniProt P07766 23-126; P04234 22-105); assay: SPR 37 C; CD3 delta/epsilon on anti-His chip, bispecific analyte; CD3 variant 2B5v6
T4 construct: captured on an anti-His chip, so it carries a His tag; also called huCD3
T4 sequence (P07766 23-126, stated change not applied, chain 1 of 2): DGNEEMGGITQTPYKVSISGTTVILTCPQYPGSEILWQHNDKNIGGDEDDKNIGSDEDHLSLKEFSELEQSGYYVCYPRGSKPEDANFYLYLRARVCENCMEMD
T4 sequence (P04234 22-105, stated change not applied, chain 2 of 2): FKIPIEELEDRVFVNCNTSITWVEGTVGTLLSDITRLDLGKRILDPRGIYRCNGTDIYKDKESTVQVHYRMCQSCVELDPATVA

[5] = biological target: T4, human CD3 (delta/epsilon heterodimer); assay: SPR 37 C; CD3 delta/epsilon on anti-His chip, bispecific analyte
[6] = biological target: T5, cyno CD3 (delta/epsilon heterodimer) (cyno, UniProt Q95LI5 22-117; Q95LI8 22-105); assay: as above
T5 construct: also called cyCD3
T5 sequence (Q95LI5 22-117, stated change not applied, chain 1 of 2): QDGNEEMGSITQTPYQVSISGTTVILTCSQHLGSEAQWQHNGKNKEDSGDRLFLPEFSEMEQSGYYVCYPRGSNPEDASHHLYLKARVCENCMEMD
T5 sequence (Q95LI8 22-105, stated change not applied, chain 2 of 2): as the sequence (P04234 22-105, stated change not applied, chain 2 of 2) above, with I5V, N15K, I20V, S32T, D33N, I34N, T64A, S74N, V83L counted along it

human B7-H4 on cells = biological target: T6, human B7-H4 on cells (human, UniProt Q7Z7D3 25-282); assay: cell-based or functional assay
T6 sequence (looked up): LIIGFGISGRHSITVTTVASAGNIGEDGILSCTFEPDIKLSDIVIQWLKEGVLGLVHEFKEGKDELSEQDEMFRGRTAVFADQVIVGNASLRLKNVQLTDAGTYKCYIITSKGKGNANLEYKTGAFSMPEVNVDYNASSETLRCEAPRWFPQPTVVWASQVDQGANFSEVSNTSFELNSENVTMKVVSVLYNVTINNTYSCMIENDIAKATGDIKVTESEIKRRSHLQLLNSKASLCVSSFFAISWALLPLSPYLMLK

[7] = biological target: T4, human CD3 (delta/epsilon heterodimer); assay: SPR 25 C; CD3 delta/epsilon on anti-His chip, bispecific analyte
[8] = biological target: T5, cyno CD3 (delta/epsilon heterodimer); assay: as above
[9] = biological target: T1, human B7-H4 extracellular domain; assay: SPR 37 C; bispecific on anti-hFc chip, ECD analyte
[10] = biological target: T2, cyno B7-H4 extracellular domain; assay: SPR 37 C; bispecific on anti-hFc chip, ECD analyte
[11] = biological target: T1, human B7-H4 extracellular domain; assay: SPR 37 C; bispecific (IgG2 scaffold) on anti-hFc chip, ECD analyte
[12] = biological target: T7, rat B7-H4 extracellular domain (rat, UniProt Q501W4 29-257); assay: SPR 37 C; bispecific on anti-hFc chip, ECD analyte
T7 construct: Soluble ECD used as SPR analyte; also called ratB7-H4 ECD
T7 sequence: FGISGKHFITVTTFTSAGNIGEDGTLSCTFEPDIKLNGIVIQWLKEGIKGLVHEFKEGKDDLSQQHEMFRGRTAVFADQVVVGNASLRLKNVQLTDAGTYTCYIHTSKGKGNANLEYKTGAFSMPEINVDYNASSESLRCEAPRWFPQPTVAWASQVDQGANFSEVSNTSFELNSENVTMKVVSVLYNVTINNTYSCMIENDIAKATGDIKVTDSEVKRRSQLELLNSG

[13] = biological target: T1, human B7-H4 extracellular domain; assay: SPR 37 C; bispecific on anti-hFc chip, ECD analyte; remark: listed apart in the source
[14] = biological target: T2, cyno B7-H4 extracellular domain; assay: SPR 37 C; bispecific on anti-hFc chip, ECD analyte; remark: listed apart in the source
[15] = biological target: T3, mouse B7-H4 extracellular domain; assay: SPR 37 C; bispecific on anti-hFc chip, ECD analyte
[16] = biological target: T4, human CD3 (delta/epsilon heterodimer); assay: SPR 37 C; CD3 delta/epsilon on anti-His chip, bispecific (IgG2 scaffold) analyte

Kd [1]: 6.83 nM | koff [1]: 0.0012 s⁻¹ | kon [1]: 176000 M⁻¹ s⁻¹ | Kd [2]: 9.29 nM | koff [2]: 0.0012 s⁻¹ | kon [2]: 129000 M⁻¹ s⁻¹ | Kd [3]: 299 nM | koff [3]: 0.0299 s⁻¹ | kon [3]: 100000 M⁻¹ s⁻¹ | Kd [4]: 56.9 nM | koff [4]: 0.0336 s⁻¹ | kon [4]: 592000 M⁻¹ s⁻¹ | Kd [5]: 41.9 nM | koff [5]: 0.0234 s⁻¹ | kon [5]: 558000 M⁻¹ s⁻¹ | Kd [6]: 47.1 nM | koff [6]: 0.0239 s⁻¹ | kon [6]: 507000 M⁻¹ s⁻¹ | Kd [7]: 7.38 nM | koff [7]: 0.00559 s⁻¹ | kon [7]: 758000 M⁻¹ s⁻¹ | Kd [8]: 8.33 nM | koff [8]: 0.00534 s⁻¹ | kon [8]: 642000 M⁻¹ s⁻¹ | Kd [9]: 21.9 nM | koff [9]: 0.00602 s⁻¹ | kon [9]: 275000 M⁻¹ s⁻¹ | Kd [10]: 30.9 nM | koff [10]: 0.00581 s⁻¹ | kon [10]: 188000 M⁻¹ s⁻¹ | Kd [11]: 18.2 nM | koff [11]: 0.00582 s⁻¹ | kon [11]: 319000 M⁻¹ s⁻¹ | Kd [12]: 1120 nM | koff [12]: 0.131 s⁻¹ | kon [12]: 117000 M⁻¹ s⁻¹ | Kd [13]: 8.86 nM | koff [13]: 0.00509 s⁻¹ | kon [13]: 575000 M⁻¹ s⁻¹ | Kd [14]: 8.81 nM | koff [14]: 0.00487 s⁻¹ | kon [14]: 553000 M⁻¹ s⁻¹ | Kd [15]: 776 nM | koff [15]: 0.134 s⁻¹ | kon [15]: 173000 M⁻¹ s⁻¹ | Kd [16]: 56.9 nM | koff [16]: 0.0336 s⁻¹ | kon [16]: 592000 M⁻¹ s⁻¹
B1: B7-H4xCD3 bispecific antibody 0074 (bispecific antibody, IgG2)
heavy 1: QVQLQQWGAGLLKPSETLSLTCAVYGGSFSGYYWNWIRQPPGKGLEWIGEINHSGSTKYNPSLKSRVTISGDTSKNQFSLKLNSVTAADTAVYYCVRGLYNWNVDSWGQGTLVTVSSASTKGPSVFPLAPCSRSTSESTAALGCLVKDYFPEPVTVSWNSGALTSGVHTFPAVLQSSGLYSLSSVVTVPSSNFGTQTYTCNVDHKPSNTKVDKTVERKCEVECPECPAPPVAGPSVFLFPPKPKDTLMISRTPEVTCVVVAVSHEDPEVQFNWYVDGVEVHNAKTKPREEQFNSTFRVVSVLTVVHQDWLNGKEYKCKVSNKGLPSSIEKTISKTKGQPREPQVYTLPPSREEMTKNQVSLTCEVKGFYPSDIAVEWESNGQPENNYKTTPPMLDSDGSFFLYSKLTVDKSRWQQGNVFSCSVMHEALHNHYTQKSLSLSPGK
light 1: DIQMTQSPSSLSASVGDRVTITCRASQGIRNDLGWYQQKPGKAPKRLIYVASSLQSGVPSRFSGSGSGTEFTLTISSLQPEDFATYYCLQHNSYPYTFGQGTKLEIKRTVAAPSVFIFPPSDEQLKSGTASVVCLLNNFYPREAKVQWKVDNALQSGNSQESVTEQDSKDSTYSLSSTLTLSKADYEKHKVYACEVTHQGLSSPVTKSFNRGEC
heavy 2: EVQLVESGGGLVQPGGSLRLSCAASGFTFSDYYMTWVRQAPGKGLEWVAFIRNQARGYTSDHNPSVKGRFTISRDNAKNSLYLQMNSLRAEDTAVYYCARDRPSYYVLDYWGQGTTVTVSSASTKGPSVFPLAPCSRSTSESTAALGCLVKDYFPEPVTVSWNSGALTSGVHTFPAVLQSSGLYSLSSVVTVPSSNFGTQTYTCNVDHKPSNTKVDKTVERKCRVRCPRCPAPPVAGPSVFLFPPKPKDTLMISRTPEVTCVVVAVSHEDPEVQFNWYVDGVEVHNAKTKPREEQFNSTFRVVSVLTVVHQDWLNGKEYKCKVSNKGLPSSIEKTISKTKGQPREPQVYTLPPSREEMTKNQVSLTCLVKGFYPSDIAVEWESNGQPENNYKTTPPMLDSDGSFFLYSRLTVDKSRWQQGNVFSCSVMHEALHNHYTQKSLSLSPGK
light 2: DIQMTQSPSSLSASVGDRVTITCTSSQSLFNVRSQKNYLAWYQQKPGKAPKLLIYWASTRESGVPSRFSGSGSGTDFTLTISSLQPEDFATYYCKQSYDLFTFGGGTKVEIKRTVAAPSVFIFPPSDEQLKSGTASVVCLLNNFYPREAKVQWKVDNALQSGNSQESVTEQDSKDSTYSLSSTLTLSKADYEKHKVYACEVTHQGLSSPVTKSFNRGEC
notes: Chains 1-2: B7-H4 arm; chains 3-4: CD3 arm; IgG2 EEE/RRR; also called anti-B7-H4 clone 28D10; CD3 variant 2B5v6
T cell mediated tumor cell killing EC50, HCC1954-Luc (human B7-H4 on cells): 73 nM | T cell mediated tumor cell killing, MDA-MB-468 (human B7-H4 on cells): 42 | T cell mediated tumor cell killing, OVCAR3-Luc (human B7-H4 on cells): 31 | T cell mediated tumor cell killing, T47D (human B7-H4 on cells): 224
